For assay [1], the target named is T1, human BCMA-Fc (human, UniProt Q02223 2-54, limits assumed).
T1 construct: Generated in-house; not shown: Fc portion of human IgG1
T1 sequence (looked up): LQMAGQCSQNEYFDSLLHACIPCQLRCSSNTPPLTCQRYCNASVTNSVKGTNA
The assay can be described thus: binding test not named (data not shown).

Assay [2] has as its target T2, human TACI-Fc (human, UniProt O14836 2-160, limits assumed).
T2 construct: Generated in-house; not shown: Fc portion of human IgG1
T2 sequence (looked up): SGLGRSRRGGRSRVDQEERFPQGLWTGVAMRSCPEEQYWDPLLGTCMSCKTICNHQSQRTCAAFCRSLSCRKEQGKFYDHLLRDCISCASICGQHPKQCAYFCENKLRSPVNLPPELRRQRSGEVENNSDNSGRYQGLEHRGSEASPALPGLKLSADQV
The assay can be described thus: binding test not named (data not shown).

In assay [3] the target is T3, mouse BCMA-Fc (R&D Systems) (mouse; human, UniProt O88472 2-49, limits assumed).
T3 construct: Bought; also called mBCMA-Fc; murine BCMA-Fc; not shown: Fc portion of human IgG1
T3 chain (looked up): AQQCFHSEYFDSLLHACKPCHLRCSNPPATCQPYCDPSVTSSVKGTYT
As to the kind of experiment: SPR (Biacore 2000), FLAG-APRIL captured by anti-FLAG M2, receptor-Fc injected, single cycle kinetics, 1:1 fit. The procedure: (§1) FIG. 10: Surface Plasmon Resonance sensorgrams to illustrate binding of TACI-Fc and BCMA-Fc to WT and R206E-APRIL. Sensorgrams of human (Panel A) and mouse (Panel B) receptors binding to WT and R206E-APRIL. Stepwise increments in the curves represent sequential injections of receptor at the following concentrations: […]. In some cases, no value for affinity was calculated due to a low binding response or high drift.
(§2) In order to further assess the binding properties of the mutants and to measure apparent affinities and kinetics of receptor binding, a Surface Plasmon Resonance based receptor binding assay was performed on a Biacore 2000 (GE Healthcare, Diegem, Belgium). Anti-FLAG-M2 monoclonal antibody (Sigma-Aldrich) was diluted at a concentration of 5 μg/ml in 10 mM sodium acetate pH 4.5 and covalently immobilized (approx 1500 RU) to a CM-5 sensor chip (GE Healthcare), using standard amine coupling chemistry according to manufacturer's guidelines (Amine coupling kit, GE Healthcare). The different FLAG-APRIL variants in the form of tissue culture supernatants were captured onto the chip via the FLAG-tag at 10 μl/minute for five minutes, giving capture levels ranging from 159 to 207 RU. As a reference lane, one of the flow cells was left free of soluble FLAG-APRIL, to control for any background binding. BCMA- or TACI-Fc were then injected for three minutes over all four flow cells at 30 μl/minutes at increasing concentrations (ranging from 1-50 nM) using the single cycle kinetics method at 25° C. Dissociation was monitored for five minutes. The resulting curves were fitted using a 1:1 Langmuir model using BIAevaluation software 4.1. For each combination of FLAG-APRIL and BCMA- or TACI-Fc, the apparent kₐ, kd and KD were calculated from a global fit of binding curves from at least three separate experiments. Non-specific binding in the reference cell was subtracted before curve fitting. Regeneration of the anti-FLAG antibody surface was carried out with a 10-minute injection at 30 μl/minute of a mixture of ⅓ volume of TBS pH 11.5, ⅓ volume of Ionic solution and ⅓ volume of water. The Ionic solution was comprised of KSCN (0.46 M), MgCl₂ (1.83 M), urea (0.92 M) and guanidine-HCl (1.83 M).

Assay [4] addresses T1, human BCMA-Fc. The description is as above. The procedure: as §1, §2
In assay [5] the target is T2, human TACI-Fc. The assay can be described thus: SPR (Biacore 2000), FLAG-APRIL captured by anti-FLAG M2, receptor-Fc injected, single cycle kinetics, 1:1 fit; SPR (BIAcore), mean ± error of fits; weak but measurable binding. The procedure: as §1
as §2, with “Regeneration of the anti-FLAG antibody surface was carried out with a 10-minute injection at 30 μl/minute of a mixture of ⅓ volume of TBS pH 11.5, ⅓ volume of Ionic solution and ⅓ volume of water. The Ionic solution was comprised of KSCN (0.46 M), MgCl₂ (1.83 M), urea (0.92 M) and guanidine-HCl (1.83 M).” left out
On the technique in general: Surface plasmon resonance follows binding to a sensor surface in real time, without labels.

For assay [6], the target named is T1, human BCMA-Fc. As to the kind of experiment: SPR (Biacore), affinities of R206E for BCMA-Fc and TACI-Fc compared. The procedure:
as §1
In order to further assess the binding properties of the mutants and to measure apparent affinities and kinetics of receptor binding, a Surface Plasmon Resonance based receptor binding assay was performed on a Biacore 2000 (GE Healthcare, Diegem, Belgium). Anti-FLAG-M2 monoclonal antibody (Sigma-Aldrich) was diluted at a concentration of 5 μg/ml in 10 mM sodium acetate pH 4.5 and covalently immobilized (approx 1500 RU) to a CM-5 sensor chip (GE Healthcare), using standard amine coupling chemistry according to manufacturer's guidelines (Amine coupling kit, GE Healthcare). […] Dissociation was monitored for five minutes. […] For each combination of FLAG-APRIL and BCMA- or TACI-Fc, the apparent kₐ, kd and KD were calculated from a global fit of binding curves from at least three separate experiments. […]

For assay [7], the target named is T2, human TACI-Fc. The assay can be described thus: SPR (Biacore 2000), FLAG-APRIL captured by anti-FLAG M2, receptor-Fc injected, single cycle kinetics, 1:1 fit. The procedure:
as §1, §2

Assay [8] has as its target T3, mouse BCMA-Fc (R&D Systems). The assay can be described thus: receptor-binding ELISA, mouse BCMA-Fc coated, dilution series of conditioned medium, anti-FLAG-HRP, OD 405 nm [BCMA selective, Ms BCMA-Fc coated]. The procedure: (§3) The relative binding of the variants to either BCMA or TACI, was tested using a binding ELISA. The following proteins were used: human BCMA-Fc, human TACI-Fc (both generated in-house), mouse BCMA-Fc (R&D Systems, Abingdon, UK), mouse TACI-Fc (R&D Systems); in all cases the Fc portion is from human IgG1. BCMA-Fc and TACI-Fc were coated on 96-well Nunc Maxisorp plates (Thermo Fischer Scientific, Roskilde, Denmark) at concentrations of 1 μg/ml and 2 μg/ml, respectively, in 0.5 M sodium bicarbonate buffer pH 9.5, overnight at 4° C. Plates were then blocked with 5% BSA for one hour at 37° C. Soluble APRIL variants in the form of tissue culture conditioned medium were then added to the plate for two hours at 37° C. Following APRIL binding, plates were washed three times with PBS, 0.05% TWEEN®20. Bound APRIL was detected with 1 μg/ml of HRP-coupled anti-FLAG M2 and visualized with 2,2′-azino-bis(3-ethylbenzothiazoline-6-sulphonic acid (ABTS) (Sigma-Aldrich). The absorbance was read at 405 nm using a UV-VIS microplate reader (BioRad, Veenendaal, The Netherlands).
In general terms: ELISA stands for enzyme-linked immunosorbent assay.

For assay [9], the target named is T4, mouse TACI-Fc (R&D Systems) (mouse; human, UniProt Q9ET35 5-129, limits assumed).
T4 construct: Bought; also called mTACI-Fc; murine TACI-Fc; not shown: Fc portion of human IgG1
T4 sequence (looked up): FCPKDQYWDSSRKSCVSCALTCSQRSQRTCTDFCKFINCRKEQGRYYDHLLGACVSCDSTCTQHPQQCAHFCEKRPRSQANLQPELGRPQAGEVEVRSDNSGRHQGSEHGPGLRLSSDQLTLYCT
The assay can be described thus: receptor-binding ELISA, mouse TACI-Fc coated [TACI selective, Ms TACI-Fc coated]. The procedure:
as §3

Assay [10] deals with T3, mouse BCMA-Fc (R&D Systems). As to the kind of experiment: receptor-binding ELISA, mouse BCMA-Fc coated [TACI selective, Ms BCMA-Fc coated]. The procedure:
as §3

Assay [11] deals with T1, human BCMA-Fc. As to the kind of experiment: receptor-binding ELISA, human BCMA-Fc coated, doubling dilutions of conditioned medium [BCMA-Fc coating]. The procedure: (§4) FIG. 2: Production and real binding properties of the APRIL mutants. (Panel A) Production of APRIL variants in conditioned medium by transient transfection of 293T cells. Supernatants (10 μl of each) were analyzed by anti-FLAG immunoblotting. Upper panel: mutants predicted to be selective for BCMA. Lower panel: mutants predicted to be selective for TACI. All mutants were checked more than three times following independent rounds of transfection to assess their expression. (Panels B and C) Receptor binding ELISA to compare binding of the predicted BCMA- and TACI-specific APRIL variants to human BCMA-Fc and TACI-Fc. Bars, from left to right, represent doubling dilutions of the conditioned media starting from undiluted media. Relevant APRIL variants are shown with dark grey bars, WT APRIL with black bars and other variants with light grey bars. This is representative of three separate experiments performed with independent APRIL-containing cell-conditioned media.
(§5) The relative binding of the variants to either BCMA or TACI, was tested using a binding ELISA. […] Bound APRIL was detected with 1 μg/ml of HRP-coupled anti-FLAG M2 and visualized with 2,2′-azino-bis(3-ethylbenzothiazoline-6-sulphonic acid (ABTS) (Sigma-Aldrich). The absorbance was read at 405 nm using a UV-VIS microplate reader (BioRad, Veenendaal, The Netherlands).

In assay [12] the target is T2, human TACI-Fc. The assay can be described thus: receptor-binding ELISA, human TACI-Fc coated, doubling dilutions of conditioned medium [TACI-Fc coating]. The procedure: as §4, §5

Residue numbers refer to the chain shown, from its start. Names may count otherwise.

B1: APRIL T175D-D205K double mutant (ligand)
chain: AVLTQKQKKQHSVLHLVPINATSKDDSDVTEVMWQPALRRGRGLQAQGYGVRIQDAGVYLLYSQVLFQDVDFTMGQVVSREGQGRQETLFRCIRSMPSHPKRAYNSCYSAGVFHLHQGDILSVIIPRARAKLNLSPHGTFLGFVKL
notes: also called T175D-D205Y/K; not shown: FLAG tag
For B1, the binding result with human BCMA-Fc [1] and with human TACI-Fc [2] was “no binding” throughout.

B2: APRIL-R206E (FLAG-tagged soluble variant) (ligand)
chain: B1 chain with D71T, K101D, R102E
notes: Used as conditioned medium; also called R206E-APRIL; not shown: FLAG tag
For the molecule B2, in assay [3], the equilibrium dissociation constant (Kd) – broadly, the equilibrium constant for the complex coming apart – came to 0.095 nM; the koff (commonly the rate constant with which the complex falls apart) amounted to 0.00015 s⁻¹; the association rate constant (kon) – broadly, the rate constant with which the complex forms – was 1.6e+06 M⁻¹ s⁻¹. Besides, in the assay with human BCMA-Fc [4], the Kd came out at 0.46 nM, the off-rate (koff) is 0.00015 s⁻¹ and the on-rate constant (kon) amounted to 330000 M⁻¹ s⁻¹. Further, in the assay with human TACI-Fc [5], the dissociation constant Kd was 11 nM, the koff is 0.01 s⁻¹ and the association rate constant (kon) stood at 2e+06 M⁻¹ s⁻¹. Moreover, the “fold selectivity for BCMA over TACI (comparison of affinities)” value in the assay with human BCMA-Fc [6] is 25 fold.

B3: APRIL T175D-R206E double mutant (ligand)
chain: B1 chain with K101D, R102E
notes: not shown: FLAG tag
On to B3, for which the binding result with human BCMA-Fc [1] and in the assay with human TACI-Fc [2] was “no binding” in each case.

B4: APRIL-R206M (FLAG-tagged soluble variant) (ligand)
chain: B1 chain with D71T, K101D, R102M
notes: Used as conditioned medium; not shown: FLAG tag
As for B4, in the assay with human TACI-Fc [7], the equilibrium dissociation constant (Kd) is 0.32 nM, the koff was 0.00016 s⁻¹ and the kon amounted to 490000 M⁻¹ s⁻¹. The binding result in assay [8] is on record as “binds”.

B5: APRIL T175D-D205Y double mutant (ligand)
chain: B1 chain with K101Y
notes: as for B1
Consider B5, for which the binding result with human BCMA-Fc [1] and with human TACI-Fc [2] was “no binding” each time.

B6: APRIL-R231A (FLAG-tagged soluble variant) (ligand)
chain: B1 chain with D71T, K101D, R127A
notes: also called receptor-dead R231A variant; not shown: FLAG tag
Regarding B6, the binding result is given as “no binding” in assay [9], “no binding” in assay [10], “no binding (tested: undiluted conditioned medium)” in the assay with human BCMA-Fc [11] and “no binding (tested: undiluted conditioned medium)” in the assay with human TACI-Fc [12].

For the origin of these results see patent US20140178329A1 (INSTITUCIO CATALANA DE RECERCA I ESTUDIS AVANCATS ICREA, published 2014).
